From patent US20130023033A1, “PHARMACOLOGICALLY INDUCED TRANSGENE ABLATION SYSTEM” (The Trustees of the University of Pennsylvania, priority 2010, published 2013)
Entries after “also recorded” stand apart in the source; their conditions may differ.

Tests used:
[1] = test system: GFP-Luciferase driven by a promoter induced by the dimerized TF; experiment: In vivo model for a dimerizer-inducible system (Xenogen imaging of luciferase after rapamycin); set-up: species or system mouse; conditions: rapamycin 2 mg/kg IP
Description: Four groups of three mice received IV injection of AAV vectors encoding bicistronic reporter genes (GFP-Luciferase) at doses of 3×10^10, 1×10^11 and 3×10^11 particles of virus, respectively: Group 1 (G 1, G2, and G3) received AAV vectors expressing GFP Luciferase under the control of ubiquitous constitutive CMV promoter (see FIG. 16A for a diagram of the DNA construct). Group 2 (G4, G5, and G6) received co-injection of the following 2 AAV vectors: (1) AAV vector expressing a dimerizable transcription factor domain unit (FRB fused with p65 activation domain and DNA binding domain ZFHD fused with 3 copies of FKBP) driven by the CMV promoter (the DNA construct shown in FIG. 9B; and (2) AAV vector expressing GFP-Luciferase driven by a promoter induced by the dimerized TF (see FIG. 19C for a diagram of the DNA constructs). Group 3 (G7, G8, and G9) received AAV vector expressing GFP-Luciferase under the control of a liver constitutive promoter, TBG (see FIG. 16C for a diagram of the DNA construct). Group 4 (G10, G11, G12) received co-injection of the following 2 AAV vectors: (1) AAV vector expressing a dimerizable transcription factor domain unit (FRB fused with p65 activation domain and DNA binding domain ZFHD fused with 3 copies of FKBP) driven by the TBG promoter; and (2) AAV vector expressing GFP-Luciferase driven by a promoter induced by the dimerized TF (see FIG. 16D for a diagram of the DNA constructs).
About 2 weeks post virus administration, the mice were given IP injection of the dimerizer, rapamycin, at the dose of 2 mg/kg. Starting the next day the luciferase expression was monitored by Xenogen imaging analysis. Approximately 24 hours post rapamycin injection, the mice were IP injected with luciferin, the substrate for luciferase, then anesthetized for imaging.

[2] = molecular target: ZFHD-FKBP fusion with 3 copies of FKBP (3xFKBP) (UniProt P62942); experiment: cell-based or functional assay
[3] = test system: pCMV.Luciferase reporter gene in HEK293 cells; experiment: Ablation of luciferase reporter by FokI ablators cotransfected with pCMV.Luciferase; format: cell-based, human; conditions: for expression of Luc reporter gene with increasing concentrations of ablator expression plasmid: 50 ng pCMV.Luciferase cotransfected with 6.25, 12.5, 25, 50 and 100 ng expression plasmid
Description: Open reading frames encoding for various endonucleases were codon optimized and de novo synthesized by GeneArt. Ablator expression and target plasmids were produced using standard molecular biological cloning techniques. Transfections were performed in HEK293 cells using Lipofectamine™ 2000 transfection reagent (Life Technologies). All transfections were performed using optimal transfection conditions as defined in transfection reagent protocol. Briefly, 200-250 ng plasmid DNA (excluding transfection control plasmid) was complexed with lipofectamine and added to cells in 96 well plates. DNA quantities were consistent across all conditions by supplementation with an unrelated plasmid containing the same promoter as test plasmids. Transfection complexes were incubated with cells for 4-6 hours as transfection reagent protocol before the addition of FBS supplemented media. Transfected cells were incubated at 37° C. for 24-72 hours. Following incubation, cells were assayed for reporter gene expression using Promega Dual Luciferase detection kit according to the manufacturer's instructions on a BioTek Clarity platereader and renilla luciferase was used to control for transfection efficiency. All samples were performed in quadruplicate and standard errors of the mean were calculated.

Chain of UniProt P62942 (P62942 other isoform, or with tags, fused parts or gaps): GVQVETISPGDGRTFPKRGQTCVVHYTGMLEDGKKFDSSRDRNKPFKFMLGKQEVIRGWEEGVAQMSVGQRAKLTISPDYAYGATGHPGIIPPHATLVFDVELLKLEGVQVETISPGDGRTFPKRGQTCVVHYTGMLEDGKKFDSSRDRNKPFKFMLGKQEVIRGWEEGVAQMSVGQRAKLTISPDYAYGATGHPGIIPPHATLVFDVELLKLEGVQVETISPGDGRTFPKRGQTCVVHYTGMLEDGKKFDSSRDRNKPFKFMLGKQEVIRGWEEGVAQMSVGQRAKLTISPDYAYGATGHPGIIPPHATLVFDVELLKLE

**Q.** What does the source list for `CO[C@H]1C[C@@H]2CC[C@@H](C)[C@@](O)(O2)C(=O)C(=O)N2CCCC[C@H]2C(=O)O[C@H]([C@H](C)C[C@@H]2CC[C@@H](O)[C@H](OC)C2)CC(=O)[C@H](C)/C=C(\C)[C@@H](O)[C@@H](OC)C(=O)[C@H](C)C[C@H](C)/C=C/C=C/C=C/1C` [rapamycin]?
**A.** level of luciferase expression compared to level of pre-induction ([1]; Group 2 mice (TF unit driven by CMV promoter + inducible GFP-Luciferase vector), 3×10^11 particles, about 24 h post rapamycin): more than 2 logs; luciferase expression induced compared to pre-inducement ([1]; Group 4 mice (TF unit driven by TBG promoter + inducible GFP-Luciferase vector), 3×10^11 particles, about 24 h post rapamycin): more than 100 fold; peak level of luciferase expression over baseline ([1]; dimerizer-inducible system): more than 2 logs

**Q.** What does the source list for “FRB-TA fusion (FRB fragment of FRAP/mTOR, amino acids 2021-2113 with Thr2098Leu, fused to a 190 amino acid portion of human NF-KB p65)”?
**A.** luciferase expression in mice (Xenogen imaging) after rapamycin 2 mg/kg IP against pre-induction; Group 2, transcription factor domains driven by the CMV promoter [2]: 2 logs; luciferase expression in mice (Xenogen imaging) after rapamycin 2 mg/kg IP against pre-induction; Group 4, transcription factor domains driven by the TBG promoter [2]: > 100 fold

**Q.** With “ZFHD-FokI: FokI catalytic domain fused to a zinc finger homeodomain DNA binding domain (SEQ ID NO: 21), from expression plasmid” as the molecule, how does the “expression of Luc reporter gene with increasing concentrations of ablator expression plasmid” value [3] read?
**A.** dose dependent ablation; also recorded: effectively ablated expression of luciferase reporter in a dose dependent manner

B1: NLS-HTH-FokI: HTH-FokI with heterologous NLS added at the N-terminus of the coding sequence (protein)
chain: MPKKKRKVGRPPRLTKAEWEQAGRLLAQGIPRKQVALIYDVALSTLYKKHPAKRAHIENDDRINGTKQLVKSELEEKKSELRHKLKYVPHEYIELIEIARNPTQDRILEMKVMEFFMKVYGYRGEHLGGSRKPDGAIYTVGSPIDYGVIVDTKAYSGGYNLPIGQADEMQRYVEENQTRNKHINPNEWWKVYPSSVTEFKFLFVSGHFKGNYKAQLTRLNHITNCNGAVLSVEELLIGGEMIKAGTLTLEEVRRKFNNGEINF
modifications: SV40 NLS-Gin HTH-linker-FokI, coding sequence only; modified enzyme from SV40, Gin and FokI
**Q.** How did the “activity (ablation of luciferase reporter) after adding heterologous NLS at the N-terminus” value ([3]; compared with HTH-FokI without NLS, separate experiment (FIG. 27B)) turn out when B1 was run?
**A.** further improved

B2: HTH-FokI: HTH from Gin, linker and FokI catalytic domain (SEQ ID NO: 6), from expression plasmid (protein)
chain: MGRPPRLTKAEWEQAGRLLAQGIPRKQVALIYDVALSTLYKKHPAKRAHIENDDRINGTKQLVKSELEEKKSELRHKLKYVPHEYIELIEIARNPTQDRILEMKVMEFFMKVYGYRGEHLGGSRKPDGAIYTVGSPIDYGVIVDTKAYSGGYNLPIGQADEMQRYVEENQTRNKHINPNEWWKVYPSSVTEFKFLFVSGHFKGNYKAQLTRLNHITNCNGAVLSVEELLIGGEMIKAGTLTLEEVRRKFNNGEINF
**Q.** Which “expression of Luc reporter gene with increasing concentrations of ablator expression plasmid” value [3] does the source give for B2 here?
**A.** effectively ablated expression of luciferase reporter in a dose dependent manner

B3: wild-type FokI: full-length FokI enzyme (SEQ ID NO: 12) expressed from cotransfected plasmid pCMV.FokI (protein)
chain: MFLSMVSKIRTFGWVQNPGKFENLKRVVQVFDRNSKVHNEVKNIKIPTLVKESKIQKELVAIMNQHDLIYTYKELVGTGTSIRSEAPCDAIIQATIADQGNKKGYIDNWSSDGFLRWAHALGFIEYINKSDSFVITDVGLAYSKSADGSAIEKEILIEAISSYPPAIRILTLLEDGQHLTKFDLGKNLGFSGESGFTSLPEGILLDTLANAMPKDKGEIRNNWEGSSDKYARMIGGWLDKLGLVKQGKKEFIIPTLGKPDNKEFISHAFKITGEGLKVLRRAKGSTKFTRVPKRVYWEMLATNLTDKEYVRTRRALILEILIKAGSLKIEQIQDNLKKLGFDEVIETIENDIKGLINTGIFIEIKGRFYQLKDHILQFVIPNRGVGTKQLVKSELEEKKSELRHKLKYVPHEYIELIEIARNPTQDRILEMKVMEFFMKVYGYRGEHLGGSRKPDGAIYTVGSPIDYGVIVDTKAYSGGYNLPIGQADEMQRYVEENQTRNKHINPNEWWKVYPSSVTEFKFLFVSGHFKGNYKAQLTRLNHITNCNGAVLSVEELLIGGEMIKAGTLTLEEVRRKFNNGEINF
**Q.** How did the “expression of the luciferase reporter gene” value ([3]; 50 ng pCMV.Luciferase, 200 ng pCMV.FokI or transfected FokI protein (FIG. 25A)) turn out when B3 was run?
**A.** effective ablated expression

B4: untethered FokI: FokI catalytic domain alone, 198 amino acids (SEQ ID NO: 14), from expression plasmid (protein)
chain: MKQLVKSELEEKKSELRHKLKYVPHEYIELIEIARNPTQDRILEMKVMEFFMKVYGYRGEHLGGSRKPDGAIYTVGSPIDYGVIVDTKAYSGGYNLPIGQADEMQRYVEENQTRNKHINPNEWWKVYPSSVTEFKFLFVSGHFKGNYKAQLTRLNHITNCNGAVLSVEELLIGGEMIKAGTLTLEEVRRKFNNGEINF
**Q.** With B4 as the molecule, how does the “expression of Luc reporter gene with increasing concentrations of ablator expression plasmid” value [3] read?
**A.** no effect
